From publication PMC2666983 come the findings set out here.

In this data set the target is T1, Ci-FoxA-a (Ci-Fkh/HNF-3beta) (Ciona intestinalis, UniProt Q4H3J7 131-225).
T1 sequence: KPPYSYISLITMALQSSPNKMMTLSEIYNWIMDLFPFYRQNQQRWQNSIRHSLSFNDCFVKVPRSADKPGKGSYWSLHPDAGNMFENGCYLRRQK
The experiment in a line: competition.

B1: 27-52 Fox (distal) (dsDNA)
DNA 1: CTACACCCATATTTGAAGACCAAA
DNA 2: TTTGGTCTTCAAATATGGGTGTAG
B1: the binding result was “binds”.
